Results reported in patent publication US20110091994A1, “Methods for Screening Compounds for Treating and/or Preventing an Hepatitis C Virus Infection” (priority 2008, published 2011).

Assays:
[1] = target: T1, HCV ORFs (Gal4-DB fusions) (Hepatitis C virus genotype 1b, UniProt Q9WMX2); format: binding, HCV genotype 1b, isolate con1; conditions: human protein as prey
T1 construct: expressed in transfected cells; host or cells: Saccharomyces cerevisiae MAV203 (IMAP1) / AH109 (IMAP2)

[2] = tested on: HCV ORFs (Gal4-DB fusions); format: binding, HCV genotype 1b, isolate con1; conditions: human protein listed by gene symbol; the value names the HCV protein it interacts with
[3] = target: T2, GST-tagged viral proteins (Hepatitis C virus genotype 1b, UniProt Q9WMX2); test: Validation by co-affinity purification (CoAP); format: binding, HCV genotype 1b, isolate con1; parameters: key: +: IMAP validation; −: not validated; NA: non assayable due to default of protein expression or to cellular protein directly interacting with GST; conditions: interaction with HCV protein NS5A
T2 construct: expressed in transfected cells; host or cells: HEK-293T
Procedure, shortened: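 HEK-293T cells were co-transfected with N-terminal GST-tagged HCV bait and 3xFLAG-tagged human prey ORFs, with GST alone as control. Two days later, lysates (0.5% NP-40, pH 8.0) were pulled down on glutathione beads. Preys were detected by anti-FLAG immunoblot after SDS-PAGE.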

[4] = target: T3, HCV proteins (Hepatitis C virus genotype 1b, UniProt Q9WMX2); test: Validation by Y2H pairwise matrices; format: binding; conditions: validation of interaction with HCV protein NS3;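 also: yeast two-hybrid pairwise tests of interactions first found in Y2H screens of HCV bait proteins against human cDNA libraries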
T3 construct: expressed in transfected cells
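For IMAP Y2H IMAP1 (number of IST) in this document: yeast two-hybrid screens using HCV genotype 1b proteins fused to Gal4-DB as baits against prey cDNA libraries from human spleen and foetal brain, IMAP1 via transformation and IMAP2 via mating.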
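For IMAP Y2H IMAP2 (number of IST) in this document: yeast two-hybrid screens using HCV genotype 1b proteins fused to Gal4-DB as baits against prey cDNA libraries from human spleen and foetal brain, IMAP1 via transformation and IMAP2 via mating.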
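For Interaction with viral protein in this document: yeast two-hybrid screens using HCV genotype 1b proteins fused to Gal4-DB as baits against prey cDNA libraries from human spleen and foetal brain, IMAP1 via transformation and IMAP2 via mating.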

T2 sequence (Q9WMX2 1973-2419): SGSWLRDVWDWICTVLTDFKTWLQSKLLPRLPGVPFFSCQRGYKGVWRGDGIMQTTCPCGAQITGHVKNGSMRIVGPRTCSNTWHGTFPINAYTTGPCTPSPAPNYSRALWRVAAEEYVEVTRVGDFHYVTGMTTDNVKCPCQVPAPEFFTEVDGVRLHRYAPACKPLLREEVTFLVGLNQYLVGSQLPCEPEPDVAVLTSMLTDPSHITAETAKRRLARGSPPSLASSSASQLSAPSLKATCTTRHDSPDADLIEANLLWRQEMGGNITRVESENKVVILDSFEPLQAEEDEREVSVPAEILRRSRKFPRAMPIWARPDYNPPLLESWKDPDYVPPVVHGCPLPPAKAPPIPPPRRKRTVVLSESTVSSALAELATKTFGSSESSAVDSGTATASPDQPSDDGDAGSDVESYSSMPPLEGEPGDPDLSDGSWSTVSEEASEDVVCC
T3 sequence (Q9WMX2 1027-1657): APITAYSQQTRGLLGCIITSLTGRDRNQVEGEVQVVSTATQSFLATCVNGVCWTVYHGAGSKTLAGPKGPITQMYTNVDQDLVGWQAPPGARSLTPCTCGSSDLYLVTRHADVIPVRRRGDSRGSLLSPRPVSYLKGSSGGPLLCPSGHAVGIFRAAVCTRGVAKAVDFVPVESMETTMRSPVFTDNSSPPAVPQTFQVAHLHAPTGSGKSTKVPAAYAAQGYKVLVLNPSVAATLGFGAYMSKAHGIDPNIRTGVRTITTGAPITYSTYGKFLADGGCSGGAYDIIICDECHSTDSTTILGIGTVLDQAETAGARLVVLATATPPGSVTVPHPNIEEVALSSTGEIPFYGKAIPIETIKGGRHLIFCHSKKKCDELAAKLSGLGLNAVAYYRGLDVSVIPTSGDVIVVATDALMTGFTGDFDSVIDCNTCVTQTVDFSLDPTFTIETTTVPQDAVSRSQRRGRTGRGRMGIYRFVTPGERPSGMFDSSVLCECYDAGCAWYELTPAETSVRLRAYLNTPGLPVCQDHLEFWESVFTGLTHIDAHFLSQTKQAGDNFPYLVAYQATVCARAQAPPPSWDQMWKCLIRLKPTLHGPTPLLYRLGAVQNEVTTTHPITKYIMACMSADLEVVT

B1: TXNDC11 (protein, UniProt Q6PKC3 1-985, looked up)
Thioredoxin domain-containing …: MSECGGRGGGSSSSEDAEDEGGGGGGPAGSDCLSSSPTLATASSAGRLRRGLRGAFLMARQRPELLCGAVALGCALLLALKFTCSRAKDVIIPAKPPVSFFSLRSPVLDLFQGQLDYAEYVRRDSEVVLLFFYAPWCGQSIAARAEIEQAASRLSDQVLFVAINCWWNQGKCRKQKHFFYFPVIYLYHRSFGPIEYKGPMSAVYIEKFVRRVMKPLLYIPSQSELLDFLSNYEPGVLGYFEFSGSPQPPGYLTFFTSALHSLKKALESTSSPRALVSFTGEWHLETKIYVLDYLGTVRFGVITNKHLAKLVSLVHSGSVYLHRHFNTSLVFPREVLNYTAENICKWALENQETLFRWLRPHGGKSLLLNNELKKGPALFLFIPFNPLAESHPLIDEITEVALEYNNCHGDQVVERLLQHLRRVDAPVLESLALEVPAQLPDPPTITASPCCNTVVLPQWHSFSRTHNVCELCVNQTSGGMKPSSVSVPQCSFFEMAAALDSFYLKEQTFYHVASDSIECSNFLTSYSPFSYYTACCRTISRGVSGFIDSEQGVFEAPTVAFSSLEKKCEVDAPSSVPHIEENRYLFPEVDMTSTNFTGLSCRTNKTLNIYLLDSNLFWLYAERLGAPSSTQVKEFAAIVDVKEESHYILDPKQALMKLTLESFIQNFSVLYSPLKRHLIGSGSAQFPSQHLITEVTTDTFWEVVLQKQDVLLLYYAPWCGFCPSLNHIFIQLARNLPMDTFTVARIDVSQNDLPWEFMVDRLPTVLFFPCNRKDLSVKYPEDVPITLPNLLRFILHHSDPASSPQNVANSPTKECLQSEAVLQRGHISHLEREIQKLRAEISSLQRAQVQVESQLSSARRDEHRLRQQQRALEEQHSLLHAHSEQLQALYEQKTRELQELARKLQELADASENLLTENTWLKILVATMERKLEGRDGAESLAAQREVHPKQPEPSATPQLPGSSPPPANVSATLVSERNKENRTD
- IMAP Y2H IMAP1 (number of IST) ([1]; HCV protein NS3 as bait): 2
- IMAP Y2H IMAP2 (number of IST) ([1]; HCV protein NS5A as bait): 1
- Interaction with viral protein [2]: NS3
- CoAP [3]: +
- Y2H matrices [4]: +
